In ChEMBL document CHEMBL6071175, “Discovery of a Potent, Selective, and Blood-Brain Barrier Permeable Non-nitrocatechol Inhibitor of Catechol-O-methyltransferase” (J Med Chem, 2024):
Each block holds one molecule with its values, some of them ahead of it.

What was measured:
[1] = target: T1, Catechol O-methyltransferase (Rattus norvegicus) (UniProt P22734); assay: Inhibition of Wistar rat liver S-COMT at 30 uM using adrenaline as substrate preincubated for 20 mins followed by substrate addition and measured after 5 mins by HPLC-ED method relative to control; settings: time 25.0 min
T1 sequence (whole entry): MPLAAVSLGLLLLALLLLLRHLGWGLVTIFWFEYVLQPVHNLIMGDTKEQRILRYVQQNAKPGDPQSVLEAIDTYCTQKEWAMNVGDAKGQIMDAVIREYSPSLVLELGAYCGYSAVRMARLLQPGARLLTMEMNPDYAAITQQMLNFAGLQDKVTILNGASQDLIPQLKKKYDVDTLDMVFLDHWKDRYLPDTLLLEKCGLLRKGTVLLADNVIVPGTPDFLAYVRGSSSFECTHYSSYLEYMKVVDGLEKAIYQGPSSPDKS

[2] = target: T1, Catechol O-methyltransferase (Rattus norvegicus); assay: Inhibition of Wistar rat brain MB-COMT at 30 uM using adrenaline as substrate preincubated for 20 mins followed by substrate addition and measured after 15 mins by HPLC-ED method relative to control; assay type: cell membranes; settings: Membrane, time 35.0 min
[3] = target: T1, Catechol O-methyltransferase (Rattus norvegicus); assay: Inhibition of Wistar rat liver MB-COMT at 30 uM using adrenaline as substrate preincubated for 20 mins followed by substrate addition and measured after 5 mins by HPLC-ED method relative to control; settings: time 25.0 min
[4] = Chromatographic hydrophobicity index of the compound at pH 2.6; assay type: physicochemical
[5] = Chromatographic hydrophobicity index logD of the compound at pH 2.6; assay type: physicochemical; settings: buffer
[6] = compound: Cc1ccc(-n2ccc(=O)c(O)c2)cc1C; assay: Uncompetitive inhibition of Wistar rat liver MB-COMT assessed as Km at 150 nM using AD as substrate in presence of varying concentration of SAM
[7] = compound: Cc1ccc(-n2ccc(=O)c(O)c2)cc1C; assay: Uncompetitive inhibition of Wistar rat brain MB-COMT assessed as Vmax at 30 nM using varying concentration of AD as substrate in presence of SAM; assay type: cell membranes; settings: Membrane
[8] = compound: Cc1ccc(-n2ccc(=O)c(O)c2)cc1C; assay: Uncompetitive inhibition of Wistar rat brain MB-COMT assessed as Km at 30 nM using AD as substrate in presence of varying concentration of SAM; assay type: cell membranes; settings: Membrane
[9] = compound: Cc1ccc(-n2ccc(=O)c(O)c2)cc1C; assay: Uncompetitive inhibition of Wistar rat liver S-COMT assessed as Vmax at 2 uM using varying concentration of AD as substrate in presence of SAM
[10] = compound: Cc1ccc(-n2ccc(=O)c(O)c2)cc1C; assay: Uncompetitive inhibition of Wistar rat liver S-COMT assessed as Km at 1 uM using AD as substrate in presence of varying concentration of SAM
[11] = compound: Cc1ccc(-n2ccc(=O)c(O)c2)cc1C; assay: Uncompetitive inhibition of Wistar rat liver S-COMT assessed as Km at 2 uM using varying concentration of AD as substrate in presence of SAM
[12] = compound: Cc1ccc(-n2ccc(=O)c(O)c2)cc1C; assay: Uncompetitive inhibition of Wistar rat liver MB-COMT assessed as Km at 150 nM using varying concentration of AD as substrate in presence of SAM
[13] = compound: Cc1ccc(-n2ccc(=O)c(O)c2)cc1C; assay: Uncompetitive inhibition of Wistar rat liver S-COMT assessed as Vmax at 1 uM using AD as substrate in presence of varying concentration of SAM
[14] = compound: Cc1ccc(-n2ccc(=O)c(O)c2)cc1C; assay: Uncompetitive inhibition of Wistar rat liver MB-COMT assessed as Vmax at 150 nM using varying concentration of AD as substrate in presence of SAM
[15] = compound: Cc1ccc(-n2ccc(=O)c(O)c2)cc1C; assay: Uncompetitive inhibition of Wistar rat brain MB-COMT assessed as Vmax at 30 nM using AD as substrate in presence of varying concentration of SAM; assay type: cell membranes; settings: Membrane
[16] = compound: Cc1ccc(-n2ccc(=O)c(O)c2)cc1C; assay: Uncompetitive inhibition of Wistar rat liver MB-COMT assessed as Vmax at 150 nM using AD as substrate in presence of varying concentration of SAM
[17] = compound: Cc1ccc(-n2ccc(=O)c(O)c2)cc1C; assay: Uncompetitive inhibition of Wistar rat brain MB-COMT assessed as Km at 30 nM using varying concentration of AD as substrate in presence of SAM; assay type: cell membranes; settings: Membrane

Molecule: CCN(CC)C(=O)/C(C#N)=C/c1cc(O)c(O)c([N+](=O)[O-])c1 [ENTACAPONE]
- CHI [4]: 63.48
- chromatographic logD [5]: 1.87

B1: Catechol O-methyltransferase (Rattus norvegicus), P22734 (protein)
chain: MPLAAVSLGLLLLALLLLLRHLGWGLVTIFWFEYVLQPVHNLIMGDTKEQRILRYVQQNAKPGDPQSVLEAIDTYCTQKEWAMNVGDAKGQIMDAVIREYSPSLVLELGAYCGYSAVRMARLLQPGARLLTMEMNPDYAAITQQMLNFAGLQDKVTILNGASQDLIPQLKKKYDVDTLDMVFLDHWKDRYLPDTLLLEKCGLLRKGTVLLADNVIVPGTPDFLAYVRGSSSFECTHYSSYLEYMKVVDGLEKAIYQGPSSPDKS
- Km [6]: 1.5 µM
- Vmax [7]: 3.9 nmol/mg/h
- Km [8]: 1.6 µM
- Vmax [9]: 22.8 nmol/mg/h
- Km [10]: 18.9 µM
- Km [11]: 245 µM
- Km [12]: 15.4 µM
- Vmax [13]: 42 nmol/mg/h
- Vmax [14]: 33.5 nmol/mg/h
- Vmax [15]: 2.2 nmol/mg/h
- Vmax [16]: 10.5 nmol/mg/h
- Km [17]: 5.3 µM

Now from value to molecule:

- inhibition [1]: < 50%
- inhibition [2]: < 50%
- inhibition [3]: < 50%
Molecule: O=c1ccn(CCc2ccccc2)cc1O

- inhibition [1]: < 50%
- inhibition [2]: < 50%
- inhibition [3]: < 50%
Molecule: Cc1ccc(CCCCCCn2ccc(=O)c(O)c2)cc1C

- inhibition [1]: < 50%
- inhibition [2]: < 50%
- inhibition [3]: < 50%
Molecule: Cc1ccc(NC(=O)c2cc(=O)c(O)co2)cc1C
